In assay [1] the target is T1, Cyno Serum Albumin (cyno, UniProt A2V9Z4 25-608).
T1 construct: Serum purified CSA (Abcam ab184894) is named for immunisation; also called CSA; cynomolgus serum albumin
The assay is described as follows: SPR, Biacore T200, single cycle kinetics, albumin amine coupled to CM5 chip, 25 C, pH 7.4. The procedure: (§1) Binding studies with human, cyno and mouse serum albumin in pH 7.4 and pH 6.0 were carried out using single cycle kinetics on a Biacore T200. Serum albumin (HSA, CSA, MSA) were coupled to CM5 chip by amine coupling using the amine reagent coupling kit GE Healthcare BR-1000-50. The surface of the chip was activated according to manufacturer's instructions. Serum albumin (HSA, CSA, MSA) were captured and cross-linked to the sensor chip surface by injecting of serum albumin (HSA, CSA, MSA) in 10 mM sodium acetate, pH 5.0. Following with the injection of 1M Ethanolamine to stabilise the serum albumin on the surface. With this procedure around 300 RU were immobilized.
(§2) For kinetics measurement four-fold serial dilution of the VH single domain antibodies (194D04-2 or 191 E02-2) in either PBST pH 7.4 or PBST pH 6.0 were injected with 120s association and 300s dissociation at the flow rate of 45 μl/min at 25° C. Binding response was corrected by subtracting both the blank flow cell and from buffer run on the same flow cell. The traces were fitted using 1:1 model.
Background: Surface plasmon resonance follows binding to a sensor surface in real time, without labels.

Assay [2] concerns the target T2, Human Serum Albumin (human, UniProt P02768 25-609).
T2 construct: also called HSA
The assay is described as above. As to the method:
as §1, §2

The next assay has as its target T3, mouse serum albumin (mouse, UniProt P07724 25-608).
T3 construct: also called MSA
In words: SPR, Biacore T200, single cycle kinetics, MSA amine coupled to CM5 chip, pH 7.4. As to the method: as §1, §2

For assay [3], the target named is T1, Cyno Serum Albumin. The assay is described as follows: SPR, Biacore T200, single cycle kinetics, albumin amine coupled to CM5 chip, 25 C, pH 6.0. The procedure: as §1, §2
For assay [4], the target named is T2, Human Serum Albumin. The assay is described as above. As to the method: as §1, §2

The text below walks through data of patent US20220227850A1 (CRESCENDO BIOLOGICS, published 2022).

By Kd is commonly meant the free concentration of one partner at which half of the binding sites on the other are occupied at equilibrium, for simple one-to-one binding. High values mean weaker binding, low ones tighter binding. Broadly, the koff is the rate constant with which the complex falls apart. Low readings indicate slow dissociation, high ones fast dissociation. In general, kon refers to the second-order rate constant of association. Lower therefore signals slower complex formation.

B1: SEQ ID NO. 5 (VH single domain antibody binding HSA) (VHH)
VHH: EVQLLESGGGLVKPGGSLRLSCAASGFTVSSYTMNWVRQAPGKGLEWVSSISSSGRYIYYADSVKGRFTISRDNAKNSLYLQMNSLRAEDTAVYYCARDPRMVGNPHEFDIWGQGTMVTVSS
notes: Human VH single domain antibody (Humabody) from a transgenic mouse, not a camelid VHH; also called Humabody 2; Humabody VH
As for B1, the Kd with Cyno Serum Albumin [1] was 11 nM; with Human Serum Albumin [2], 30 nM; with Cyno Serum Albumin [3], 4.9 nM; with Human Serum Albumin [4], 37 nM. The koff was 0.0065 s⁻¹ with Cyno Serum Albumin [1], 0.019 s⁻¹ with Human Serum Albumin [2], 0.0032 s⁻¹ with Cyno Serum Albumin [3] and 0.031 s⁻¹ with Human Serum Albumin [4]. Moreover, the kon with Cyno Serum Albumin [1] worked out at 570000 M⁻¹ s⁻¹; with Human Serum Albumin [2], 620000 M⁻¹ s⁻¹; in the assay with Cyno Serum Albumin [3], 640000 M⁻¹ s⁻¹; in the assay with Human Serum Albumin [4] it was 840000 M⁻¹ s⁻¹. Besides, the binding result with mouse serum albumin is listed as “no binding”.

B2: SEQ ID NO. 30 (VH single domain antibody binding HSA, variant of SEQ ID NO. 1) (VHH)
VHH: EVQLVESGGGLVKPGGSLRLSCAASGFTFSNYNMNWVRQAPGKGLEWVSSISSAGTHIYYADSVKGRFTISRDNAKNSLYLQMNSLRAEDTAVYYCARDPHSTGWYKDFDYWGQGTLVTVSS
notes: Human VH single domain antibody (Humabody) from a transgenic mouse, not a camelid VHH; also called Humabody VH; variant of Humabody 1
As to B2, the Kd with Cyno Serum Albumin [1] came out at 100 nM; in the assay with Human Serum Albumin [2] it was 590 nM; with Cyno Serum Albumin [3] it was 99 nM; with Human Serum Albumin [4] it was 600 nM. The koff with Cyno Serum Albumin [1] came to 0.041 s⁻¹; in the assay with Human Serum Albumin [2], 0.19 s⁻¹; with Cyno Serum Albumin [3], 0.0644 s⁻¹; in the assay with Human Serum Albumin [4], 0.32 s⁻¹. The kon with Cyno Serum Albumin [1] came to 290000 M⁻¹ s⁻¹; with Human Serum Albumin [2] it was 330000 M⁻¹ s⁻¹; with Cyno Serum Albumin [3], 640000 M⁻¹ s⁻¹; in the assay with Human Serum Albumin [4] it was 530000 M⁻¹ s⁻¹. Moreover, the binding result in the assay with mouse serum albumin is on record as “no binding”.
